Source: publication PMC4513872

Target: C-Intein_C-Cas9_v1 (Nostoc punctiforme | Streptococcus pyogenes) (UniProt Q99ZW2)

percentage of indels at the endogenous Fus locus in Neuro-2a cells (T7 endonuclease I assay) after transfection of both moieties; wild-type SpCas9 gave 23.1%: 22.7%
Substance: N-Cas9_N-Intein_v1 (from UniProt Q99ZW2 1-573)
